Assay results from paper PMC10177328, “High Intrinsic Oncogenic Potential in the Myc-Box-Deficient Hydra Myc3 Protein”.

Target: T1, Hydra Myc3 bHLH-LZ (p13);Hydra Max bHLH-LZ (p13) (Hydra (strain  in the text …, UniProt A0A0H5FMB4;D0EM50 108-197;29-120, |))
T1 sequence 1: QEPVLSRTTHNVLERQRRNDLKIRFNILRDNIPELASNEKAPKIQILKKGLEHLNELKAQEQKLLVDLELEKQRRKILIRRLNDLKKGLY
T1 sequence 2: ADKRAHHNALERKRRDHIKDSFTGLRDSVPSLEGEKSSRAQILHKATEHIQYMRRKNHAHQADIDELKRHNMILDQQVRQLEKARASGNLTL
Test: EMSA; 0-2000 nM protein; EMSA: 10 mM Tris-HCl pH 7.5, 0.5 mM EDTA, 65 mM KCl, 5 mM MgCl2, 1 mM DTT, 100 ug/mL BSA, 10% glycerol, 25 C, 45 min; native 6% PAGE
Details: protein: recombinant;recombinant, tags: N-terminal initiator Met, C-terminal His6;N-terminal initiator Met, copies: 1;1, label: 32P, blunt

B1: myc2 promoter E-box 18-mer (dsDNA)
DNA 1: ATAGCTCACGTGTCAATA
DNA 2: TATTGACACGTGAGCTAT
B1 showed a Kd of 16.3 nM.
